The supplement of paper PMC12042874
± gives the uncertainty stated by the source.

Assay: amyloid nucleation score (Sup35N fusion, yeast selection) (log enrichment); library NNK1; higher = more nucleation; inactive = no reads after selection
Method in brief: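 DiMSum was used to calculate nucleation scores as log enrichment of output over input reads, centred on the mode score of non-aggregating sequences. Sequences with fewer than 100 input reads were not scored. Input and output came from Illumina sequencing of plasmid inserts in psi-negative yeast expressing peptides of 20 random codons fused to Sup35N, induced 24 hours with 100 μM copper sulfate and then grown 7 days at 30°C on medium lacking adenine and uracil.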

Substance | amyloid nucleation score
NPSQIELRAFRTCMMYCGS | inactive
GIRPNIANFSYKVHHPVLRG | inactive
QWCVKESAFIYEYRLSGDCL | -0.584 ± 0.74
QTFTYKCFIHYFMRMWLVQI | -0.005 ± 0.75
MLIKSIFIFSTLLYISMYD | 0.786 ± 0.29
SSESICFNIRGQDINRT | -0.446 ± 0.37
YYPNPMQPW | -0.526 ± 0.47
PSCRC | inactive
MEPYYVRNSCFCRIRDRNF | -0.21 ± 0.33
ITCYGKCYPSRDKL | 1.27 ± 0.56
TVVYDWFG | -0.078 ± 0.75
DIKGRLLWGDKARLNEVPLR | 1.04 ± 0.57
DLLYERTYRSVVISLRTLAG | 0.816 ± 0.92
CKSESRFLFAYNSLCLKSMG | -0.043 ± 0.3
RKFAFKSIWSWYRI | 0.533 ± 0.54
QKDSTPISGWFSFYMSVPFK | inactive
DNSPSSWFDWDLGEIGVRVE | -0.469 ± 1
ANLVWDYFQVSTSPMCPLVQ | -2.07 ± 2.4
PCTMGMYIGAGHR | 0.418 ± 1
MGVLKWLATRLDWFKKIMCR | 2.3 ± 0.13
RGEVHSIWTPPLHKGQEMGI | 0.048 ± 0.78
FSGGGNITACGCV | -0.385 ± 0.65

Substance | amyloid nucleation score
SSKLSYWYKMAIESSFNVLH | -0.083 ± 0.41
VRLIRTPSDIGTYIIGCREG | -0.065 ± 0.38
FRKTMLWVLVVMGPIFTGSR | 0.548 ± 0.87
SKEFPHMYFFGVRFVVVTKV | -0.246 ± 0.45
SQVEVIVYNVVSFTDGVRLA | 3.89 ± 0.097
FVLRV | 0.423 ± 0.47
SRYELSIVDCLRHTTSFFVR | 0.034 ± 0.81
LSFETRRWMYYIS | 0.446 ± 0.24
QRFLHVESYESCLVSVSNLS | -0.752 ± 1.9
PMSRIKWILLSGLSKGLSYG | 2.41 ± 0.17
PDSTVARVDVSPELIFCLKS | -0.708 ± 0.6
LYAKLQLLRNKYRVYLFVTS | -0.741 ± 0.55
TNITNLSSFVMDDTGWSVNE | inactive
FNYVILTFWVKYTFSAHCV | -0.271 ± 0.64
YFCQWH | inactive
GITLSIAFLKAYLCRSKGGS | 2.62 ± 0.14
LACWLTTRNKCILNSLITLV | 0.08 ± 1.1
CAYVVVLLCSVLVDAGYVCR | 1.94 ± 0.17
DFIVS | -0.198 ± 0.3
TISLDRRDAVNYLVAHLCSV | -0.146 ± 1.4
HILRIWLRGLWMILYRTYEN | -0.513 ± 0.84
MAVFSIDRVVPVVTGGCIAE | 0.035 ± 0.46

Substance | amyloid nucleation score
FACMEGSLVM | inactive
TVYGGLWAFSKTICCVSPKR | 7.228 ± 0.056
TVSMDVLYMIGGCLLCVV | 0.209 ± 0.41
ESSIVVGCRGSGWTQDAASQ | -0.465 ± 0.29
SLFMDRFNVDVI | -0.107 ± 0.35
YSYKCGGVRTSTSFLSMLFV | 0.811 ± 0.18
RDSINLLDFGIVITGAKKWS | 0.218 ± 0.27
TNGNGFIRRFTRAYFFT | -0.338 ± 0.5
SCRLIDWVPSHSRYRTFCCE | -0.386 ± 0.37
VTRTSYWGVFWSHSWRTWM | inactive
THDLRLMIGHDCDTVNGYSR | -0.725 ± 0.43
SHGRMCQLEYWSLRKGRGAG | 0.229 ± 0.59
CTLILSQQFSSIPVHFILYM | 4.4 ± 0.05
DRRMSTTVMGRFVWRDRYVG | 0.526 ± 0.65
KDALDHHLIMLRGYVVLQS | -0.891 ± 0.59
LYTITLLIALALTTEQAPPR | 1.67 ± 0.28
SCKGQPARVTCETRFTGYER | 2.32 ± 0.49
LRKMLMDE | inactive
MMLCSYKWVF | 0.1 ± 0.24
GMRVMRYYLPRGNQKFGESR | 0.823 ± 0.63
HWCLMGLCKLFSSARPPLKK | 0.085 ± 0.8
YDILNGQAHDCYETMVKGWG | -0.372 ± 0.47

Substance | amyloid nucleation score
FTAWP | -0.242 ± 0.3
WIFTREQAFFSDRCLAASSK | 0.649 ± 0.76
FLGLCS | -0.278 ± 0.4
YCVQFVRLMLKKNGRGYNYR | -0.762 ± 1.1
SQYQTLDVHIKGNVCSNLDM | 0.012 ± 1.6
VGNRCGVL | 0.05 ± 0.33
RNYCDPGAFGVWGVTGHHRV | -0.816 ± 0.92
QYHYNGGLPRQFK | -0.534 ± 0.54
SKKSSRDLNSTSGRR | -0.808 ± 1.4
RQFIELKCLFPMADVIVF | 0.315 ± 0.38
VEAMLTEPWRWH | -0.522 ± 1.7
WCCWVMCV | 6.726 ± 0.061
RAAALRRKRDD | 0.203 ± 0.42
MDLHTACVYSKVGMTLDQPS | 0.343 ± 0.39
AYEGKGITGHLIFSWKSKSL | 1.55 ± 0.13
QRERMRGFKFDRLFCIRVWW | -1.03 ± 0.44
SDYIWWRLCGGIKCQGGELG | -1.74 ± 2.1
VLESIQGCYFLGASWIAEFR | 0.409 ± 0.48
LLRRLTTI | 0.696 ± 0.52
